This passage reports GH-dependent Nb2 cell proliferation inhibitory activity (IC50) and IC50 results from patent US20240391996A1.

For experiment [1], the target named is recombinant human GH (Pharmaceutical and Medical Device Regulatory Science Society of Japan) (human) (UniProt P01241). As to the kind of experiment: cell-based or functional assay.
Experiment [2] shares this target. As to the kind of experiment: GH-GHR binding inhibition ELISA: biotin-labeled GH (5.5 ng/mL) on captured GHR-hFc, antibody varied.

recombinant human GH (Pharmaceutical and Medical Device Regulatory Science Society of Japan) (human), sequence (P01241 27-217 limits assumed): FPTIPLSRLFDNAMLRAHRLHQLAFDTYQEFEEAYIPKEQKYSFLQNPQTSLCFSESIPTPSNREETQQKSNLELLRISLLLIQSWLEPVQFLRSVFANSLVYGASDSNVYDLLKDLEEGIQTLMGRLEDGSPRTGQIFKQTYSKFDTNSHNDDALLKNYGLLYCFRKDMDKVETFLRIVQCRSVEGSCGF

With “anti-GH mouse mAb (MAB1067, R&D Systems, Inc.) (antibody)”, in experiment [1], the GH-dependent Nb2 cell proliferation inhibitory activity (IC50) stood at 21.5 nM. Further, the IC50 in experiment [2] turned out to be 6.86 nM.
